Experimental data published in US9395368B2, “Methods, agents and peptides for inducing an immune response to matrix metalloproteinase-2 expressing tumors” (New York University, priority 2010, dated 2016).

Assays:
OX40L expression on DCs = OX40L expression on DCs by surface staining; format: cell-based, human; details: immature and poly(I:C)-matured DCs, n=9, 24 h
Protocol: Immature and poly(I:C)-matured DCs were incubated with active or HI MMP-2 (0.5 μg/mL or 5 μg/mL) for 24 h. MMP-2 enzymatic activity was controlled (FIG. 13C-D). OX40L expression was assessed by surface staining (A) Histogram plots are shown for representative donor HD1228. Isotype control is represented in tinted gray. (B) Mean fluorescent intensities are represented for all 9 donors tested. […] P values≦0.0167 (*) were considered statistically significant using a Bonferroni correction for 3 comparisons for each DC type. See also FIG. 12.
Dendritic cell preparation and activation. PBMCs were purified from healthy—(HD) or cord blood—(CB) donors and plated at 40×10^6 cells/10 mL/dish in complete IMDM with 5% PHS. Cells were allowed to adhere for 2 h at 37° C. Non-adherent cells were removed. The monocyte-enriched fraction was supplemented with 100 UI/mL rhGMCSF and 300 UI/mL rhIL-4 (R&D Systems) on days 0, 2 and 4. Immature DCs were harvested on day 5 and matured using poly(I:C) at 5 μg/mL/10^6 DCs (Amersham) Secretion of IL-12p70, TNFα, IL-1β, IL-6, IL-8 and IL-10 was assessed on both immature and mature DCs using the Human Inflammatory Cytokine Cytometric Bead Array (BD Pharmingen).

[1] = test system: phosphorylated (Y701) STAT1; experiment: Intracellular staining of phosphorylated (Y701) STAT1 in DCs; format: cell-based, human; details: DCs preincubated 1 h (5 μg/mL) prior to poly(I:C), 3 h
Protocol: Immature DCs were incubated with MMP-2 (0.5 μg/mL or 5 μg/mL) and poly(I:C)-matured 1 h later. IL-12 levels were measured 16 h later. (A) Results are represented as a percentage of IL-12p70 levels, measured by CBA, produced when DCs were incubated with poly(I:C) only (n=11). (B) For intracellular staining of IL-12p35 and IL-12p40 chains, Brefeldin A was added 4 h after poly(I:C) activation and cells were stained after an additional 12 h incubation. Numbers in the upper right quadrants are the percentages of each population for a representative donor (n=3). (C,D) Immature DCs were incubated with MMP-2 for 1 h (5 μg/mL) before poly(I:C) maturation. Intracellular staining of phosphorylated (Y701) STAT1 (P-STAT1) was performed 3 h later. A representative donor (C) and results for all 3 donors (D) are shown. […] (E) Immature DCs were incubated with MMP-2 and poly(I:C)-matured 1 h later. IFNβ levels were measured by ELISA 16 h later. Results are represented as a percentage of IFNβ levels produced when DCs were incubated with poly(I:C) only (n=9). […] IFNAR1 protein expression was detected the next day by Western blot analysis using a rabbit monoclonal antibody. […]
Intracellular staining T-bet and GATA-3 expression was measured on resting T cells. […] Cytokine production by T cells was also assessed by intracellular staining T cells were stimulated with 2 μM overlapping peptides. […]

rhIFNAR1 = experiment: Overnight incubation of rhIFNAR1 with MMP-2 (Western blot); format: biochemical, human; details: incubated overnight
Protocol: Immature DCs were incubated with MMP-2 (0.5 μg/mL or 5 μg/mL) and poly(I:C)-matured 1 h later. IL-12 levels were measured 16 h later. (A) Results are represented as a percentage of IL-12p70 levels, measured by CBA, produced when DCs were incubated with poly(I:C) only (n=11). (B) For intracellular staining of IL-12p35 and IL-12p40 chains, Brefeldin A was added 4 h after poly(I:C) activation and cells were stained after an additional 12 h incubation. Numbers in the upper right quadrants are the percentages of each population for a representative donor (n=3). (C,D) Immature DCs were incubated with MMP-2 for 1 h (5 μg/mL) before poly(I:C) maturation. Intracellular staining of phosphorylated (Y701) STAT1 (P-STAT1) was performed 3 h later. A representative donor (C) and results for all 3 donors (D) are shown. […] (E) Immature DCs were incubated with MMP-2 and poly(I:C)-matured 1 h later. IFNβ levels were measured by ELISA 16 h later. Results are represented as a percentage of IFNβ levels produced when DCs were incubated with poly(I:C) only (n=9). (F,G) 10^6DCs/lane were treated with 0.1 μg MMP-2 or controls. Poly(I:C) was added 1 h later. IFNAR1 protein expression was detected the next day by Western blot analysis using a rabbit monoclonal antibody. […]
Western blots IFNAR1 and β-actin were detected by Western blot analysis using rabbit and mouse mAbs, respectively. […]

B1: active MMP-2: Purified human MMP-2 (mixture of the proenzyme (50%) and the active form (50%)) purchased from Biomol (protein, listed as Homo sapiens)
chain: MEALMARGALTGPLRALCLLGCLLSHAAAAPSPIIKFPGDVAPKTDKELAVQYLNTFYGCPKESCNLFVLKDTLKKMQKFFGLPQTGDLDQNTIETMRKPRCGNPDVANYNFFPRKPKWDKNQITYRIIGYTPDLDPETVDDAFARAFQVWSDVTPLRFSRIHDGEADIMINFGRWEHGDGYPFDGKDGLLAHAFAPGTGVGGDSHFDDDELWTLGEGQVVRVKYGNADGEYCKFPFLFNGKEYNSCTDTGRSDGFLWCSTTYNFEKDGKYGFCPHEALFTMGGNAEGQPCKFPFRFQGTSYDSCTTEGRTDGYRWCGTTEDYDRDKKYGFCPETAMSTVGGNSEGAPCVFPFTFLGNKYESCTSAGRSDGKMWCATTANYDDDRKWGFCPDQGYSLFLVAAHEFGHAMGLEHSQDPGALMAPIYTYTKNFRLSQDDIKGIQELYGASPDIDLGTGPTPTLGPVTPEICKQDIVFDGIAQIRGEIFFFKDRFIWRTVTPRDKPMGPLLVATFWPELPEKIDAVYEAPQEEKAVFFAGNEYWIYSASTLERGYPKPLTSLGLPPDVQRVDAAFNWSKNKKTYIFAGDKFWRYNEVKKKMDPGFPKLIADAWNAIPDNLDAVVDLQGGGHSYFFKGAYYLKLENQSLKSVKFGSIKSDWLGC
- OX40L expression on DCs (OX40L expression on DCs): significantly increased
- STAT1 phosphorylation [1]: decreased
- degradation of rhIFNAR1 (≈110 kD) (rhIFNAR1): degraded
